These results are taken from PMC9510126, “Hydrophobicity is a key determinant in the activity of arginine-rich cell penetrating peptides” (Scientific Reports, 2022).

Series [1] is described as follows: C18 reverse phase HPLC hydrophobicity of (X)TAT and d(X)TAT peptides. Format: physicochemical. The note with it: chromatographic, C18, 0–40% B over 20 min, 0.1% TFA (pH 2); ranking within the d(X)TAT series. Here is the method: In order to assess the hydrophobicity contributed by each X group, the peptides were first analyzed by reverse phase HPLC using a C18 column, using gradients of buffer A (water/TFA 99.9:0.1) and buffer B (acetonitrile/water/TFA 89.9:10:0.1 v:v:v) (gradient of 0–40% B over 20 min). […] All d(X)TAT peptides eluted over a range of 10–35% acetonitrile. […] One caveat of this approach is that the buffer system used for peptide analysis is pH 2 (due to the presence of TFA, required to protonate residue side chains). However, pH 2 is not representative of the pH that CPPs may be exposed to when in contact with cells, either pH 7.2 outside the plasma membrane, or pH between 6.5 and 4.5 while inside acidic endosomes. In order to establish the relative hydrophobicities of d(X)TAT peptides at these pHs, we sought to use other techniques, including thin layer chromatography using C18, aluminum oxide or silica stationary phases. Unfortunately, the arginine-rich peptides could not be separated on these systems. To solve this problem, each individual X group was synthesized, using acetylated and amidated N and C-terminal positions to mimic the peptide backbone found in the d(X)TAT constructs (Fig. 1A, Figure S11). Each Ac-X-NH2 group was analyzed by HPLC and by RP18 TLC, using 40% acetonitrile and 60% PBS as mobile phase. The HPLC elutions of Ac-X-NH2 correlated with the HPLC elutions of their respective d(X)TAT counterparts (Fig. 1C). Similarly, the relative hydrophobicities of Ac-X-NH2 determined by TLC (measured as 1-Rf) at pH 4 or 8 were in good agreement with the results obtained by HPLC (Fig. 1D). […] In the case of DEAC, the protonation state of the fluorophore has, to our knowledge, not been characterized.
All rpHPLC retention times were analyzed using an Agilent HP 1200 series instrument on an analytical Phenomenex Luna Omega Polar C18 column (5 μm, 4.6 mm × 250 mm). The flow rate was 2 mL/min, and detection was at 214 nm. A binary solvent system was used comprising 99.9% H2O/0.1% TFA (solvent A) and 90% Acetonitrile/9.9% H2O/0.1% TFA (solvent B). […]

The nature of series [2]: Zeta potential of BMP LUVs in contact with peptides. It is filed as binding. The following applies: 0.33 µM peptide, 50 µM lipid (P:L 1:150), PBS pH 5.5, 25 °C, triplicate. Here is the method: The interaction partners of CPPs that may mediate direct plasma membrane translocation remain undefined. It is therefore unclear which liposome system can be used to probe this activity. […] This permeabilization is consistent with a leaky fusion process, where peptide-induced contact between liposomes is required for leakage. In order to assess whether similar processes are involved with peptides of the d(X)TAT series, LUVs were loaded with calcein to probe leakage. LUVs were prepared with either 65:15:20 PC:PE:Chol or 77:19:4 BMP:PC:PE, lipid compositions consistent with plasma membrane /early endosomes (PM/EE) bilayers or late endosome (LE) bilayers, respectively[36],[37]. Peptides were added to liposomes suspensions at various peptide-to-lipid ratios, and the release of calcein was monitored by gel filtration. […] The mixtures were then added to a folded capillary zeta cell for measurement on a Zetasizer Nano-zs (Malvern). Instrument was set to hold at 25 °C and automatically determine the optimal voltage and attenuator positions for each measurement. Each sample was set to be measured three times by the instrument and the average of these measurements was used to determine the zeta potential for a single sample. This experiment was performed in triplicate for each condition.

“Also recorded” adds a separate entry of the source. Ends that are not written are not given here.

“d(K(Ac))TAT: disulfide dimer of CXRKKRRQRRRG with X = lysine conjugated to an acetyl group (CK(Ac)RKKRRQRRRG-NH2; also: disulfide dimer)”: the “relative hydrophobicity of X group by C18 HPLC” value in series [1] is “least hydrophobic; also recorded: lowest peptide on the hydrophobicity scale”. Besides, in series [2], the “effect on apparent zeta potential of BMP-rich LUVs” value was “largest effect”.
